# Experimental data as given in patent US11584938B2, “Plant EPSPS mutant containing L195P and S247G mutations and encoding gene and use thereof” (GEVOTO LLC, priority 2017, dated 2023).
# Tested on: transgenic rice plants
# Experiment: glyphosate resistance of the EPSPS mutant in transgenic rice plants sprayed with Roundup 41% ammonium glyphosate
# Assay type: in vivo, rice (Nipponbare)
# From the text: A method for detecting the glyphosate resistance of G1 (SEQ ID NO: 4) provided in Example 1, G3 (SEQ ID NO: 8) provided in Example 2, G4 (SEQ ID NO: 10) provided in Example 3, the soybean EPSPS mutant G5 (SEQ ID NO: 12) provided in Example 4, T1 (SEQ ID NO: 16) provided in Example 5, T3 (SEQ ID NO: 20) provided in Example 6, T4 (SEQ ID NO: 22) provided in Example 7, T5 (SEQ ID NO: 24) provided in Example 8, the wheat EPSPS mutant T6 (SEQ ID NO: 26) provided in Example 9, R1 (SEQ ID NO: 30) provided in Example 10, R3 (SEQ ID NO: 34) provided in Example 11, R4 (SEQ ID NO: 36) provided in Example 12, R5 (SEQ ID NO: 38) provided in Example 13, and the rice EPSPS mutant R6 (SEQ ID NO: 40) provided in Example 14 in the transgenic rice is as follows:
# The plasmids (containing the EPSPS mutation gene) of the monoclonal resistant bacteria of pADV5-EPSPS in Examples 1-7 were extracted by a conventional method, followed by double enzyme digestion by Pac1 and BstEII, the small fragments were collected, and then the small fragments were ligated by using T4 DNA ligase, to the pGVP1 vectors that had undergone the same double enzyme digestion, to obtain a pGVP1-EPSPS vector having a structure as shown in FIG. 23.
# EHA105 (Agrobacterium tumefaciens) competent cells were transformed by the pGVP1-EPSPS vector, and single colonies were picked up to perform bacterial colony PCR detection to identify positive strains; then the positive strains were inoculated into 1 mL of YEP culture medium containing 50 μg·mL^−1 kanamycin and 50 μg·mL^−1 rifampin to propagate, and then preserved at −80° C., or used for subsequent experiment.
# 400 μl of bacterium containing the target gene vector preserved at −80° C. was added to a culture dish of solid culture media containing YEP+50 μg/mL rifampin+50 μg/mL kanamycin, and cultured in the dark at 28° C. for 24 hours, then this bacterium was added to an infection culture medium, and this bacterial solution was adjusted to OD=0.2 as an infection liquid.
# Sterilization and pre-culturing: mature rice (Nipponbare) seeds were manually shelled, and full seeds without bacterial plaque were selected, and sterilized according to following steps: putting the seeds into a 50 ml sterile centrifuge tube, adding 70% alcohol for disinfection for 30 seconds, pouring out the alcohol, and cleaning the seeds once with sterile water; adding 10-20 ml of 2.6% sodium hypochlorite solution for soaking and sterilizing for 20 minutes, pouring out the sodium hypochlorite solution, and soaking and cleaning the seeds with sterile water for 6-7 times, 3 minutes each time.
# Induction and subculturing: the seeds were put on sterile filter paper for drying, and mature embryos were put in an induction culture medium with 12 embryos in each dish; the culture dishes were sealed with a sealing film after the operation was finished, the mature embryos were cultured in the dark at 30° C. for 21-28 days, calluses were transferred into a fresh culture medium, and continuously cultured for about 7-14 days, and spherical calluses with a size of 1-2 mm were taken as infection receptors.
# the calluses were inoculated into a centrifuge tube or a culture cup, the prepared Agrobacterium tumefaciens suspension liquid was added for infection for 10 minutes, wherein the calluses were shaken several times; the bacterial solution was poured out, the calluses were taken out, and placed on sterile filter paper to suck out the surface bacterial solution (about 30 minutes); and the calluses were put on sterile filter paper in a culture dish, and cultured in the dark at 25° C. for 2-3 days.
# Recovery culturing: the calluses having undergone co-culturing were inoculated in a recovery culture medium, and cultured in the dark at 30° C. for 5-7 days. First round of screening: the calluses were transferred to screening culture media 1 (S1) and cultured in the dark at 30° C. for 14 days. […]
# [1] = 1× dosage 1060 g/hectare glyphosate sprayed, recorded on 10th day
# [2] = 2× dosage 2120 g/hectare sprayed to plants surviving 1×, recorded 10 days later
# [3] = 5× dosage 5300 g/hectare sprayed to plants surviving 2×, recorded 10 days later
# [4] = 20× dosage 21200 g/hectare sprayed to plants surviving 5×, recorded 10 days later
Molecule,%++&+++ (percentage of plant having medium and high glyphosate resistance to the total number of plants observed) [1],number of plants denoted by + (low glyphosate resistance) [1],number of plants denoted by ++ (medium glyphosate resistance) [1],number of plants denoted by +++ (high glyphosate resistance) [1],number of plants denoted by − (no glyphosate resistance) [1],"glyphosate resistance / survival of the rice transformed by the EPSPS, in words (1× glyphosate dosage)",%++&+++ (percentage of plant having medium and high glyphosate resistance to the total number of plants observed) [2],number of plants denoted by + (low glyphosate resistance) [2],number of plants denoted by ++ (medium glyphosate resistance) [2],number of plants denoted by +++ (high glyphosate resistance) [2],number of plants denoted by − (no glyphosate resistance) [2],&++&+++ (percentage of plant having medium and high glyphosate resistance to the total number of plants observed) [3],number of plants denoted by + (low glyphosate resistance) [3],number of plants denoted by ++ (medium glyphosate resistance) [3],number of plants denoted by +++ (high glyphosate resistance) [3],number of plants denoted by − (no glyphosate resistance) [3],&++&+++ (percentage of plant having medium and high glyphosate resistance to the total number of plants observed) [4],number of plants denoted by + (low glyphosate resistance) [4],number of plants denoted by ++ (medium glyphosate resistance) [4],number of plants denoted by +++ (high glyphosate resistance) [4],further results
"T1: wheat EPSPS mutant, SEQ ID NO: 16, mutation S269(247)G (protein) MATSVAAPAAPAGAEEVVLQPIREISGAVQLPGSKSLSNRILLLSALSEGTTVVDNLLNSEDVHYMLEALEALGLSVEADKVAKRAVVVGCGGRFPVEKDAKEEVKLFLGNAGTAMRPLTAAVVAAGGNATYVLDGVPRMRERPIGDLVVGLQQLGADVDCFLGTNCPPVRINGKGGLPGGKVKLSGSISSQYLSSLLMAAPLALEDVEIEIIDKLISVPYVEMTLKLMEHFGVTAEHSDSWDRFYIKGGQKYKSPGNAYVEGDASSAGYFLAGAAITGGTVTVEGCGTTSLQGDVKFAEVLEMMGAKVTWTDTSVTVTGPPRQPFGRKHLKAVDVNMNKMPDVAMTLAVVALFADGPTAIRDVASWRVKETERMVAIRTELTKLGATVEEGPDYCIITPPEKLNITAIDTYDDHRMAMAFSLAACAEVPVTIRDPGCTRKTFPNYFDVLSTFVKN",27.0%,28,15,2,18,obviously superior to that of the rice seedlings transformed by T0,1.6%,32,1,0,30,0.0%,2,0,0,61,0.0%,0,0,0,"glyphosate resistance / survival of the rice transformed by the EPSPS, in words (2× glyphosate dosage): some of the transgenic rice seedlings transformed by T4, T1 and T5 still survived; glyphosate resistance / survival of the rice transformed by the EPSPS, in words (5× glyphosate dosage): some of the transgenic rice seedlings transformed by T4, T1 and T5 still survived; number of plants denoted by − (no glyphosate resistance) [4]: 63"
"T3: wheat EPSPS mutant, SEQ ID NO: 20, mutations S269(247)G and P118(101)S (protein) MATSVAAPAAPAGAEEVVLQPIREISGAVQLPGSKSLSNRILLLSALSEGTTVVDNLLNSEDVHYMLEALEALGLSVEADKVAKRAVVVGCGGRFPVEKDAKEEVKLFLGNAGTAMRSLTAAVVAAGGNATYVLDGVPRMRERPIGDLVVGLQQLGADVDCFLGTNCPPVRINGKGGLPGGKVKLSGSISSQYLSSLLMAAPLALEDVEIEIIDKLISVPYVEMTLKLMEHFGVTAEHSDSWDRFYIKGGQKYKSPGNAYVEGDASSAGYFLAGAAITGGTVTVEGCGTTSLQGDVKFAEVLEMMGAKVTWTDTSVTVTGPPRQPFGRKHLKAVDVNMNKMPDVAMTLAVVALFADGPTAIRDVASWRVKETERMVAIRTELTKLGATVEEGPDYCIITPPEKLNITAIDTYDDHRMAMAFSLAACAEVPVTIRDPGCTRKTFPNYFDVLSTFVKN",71.0%,27,33,77,18,had relatively high resistance to glyphosate,51.0%,47,46,33,29,25.8%,75,38,2,40,3.2%,57,5,0,number of plants denoted by − (no glyphosate resistance) [4]: 93
"T2: wheat EPSPS mutant, SEQ ID NO: 18, merely containing the mutation P118(101)S; control (protein) MATSVAAPAAPAGAEEVVLQPIREISGAVQLPGSKSLSNRILLLSALSEGTTVVDNLLNSEDVHYMLEALEALGLSVEADKVAKRAVVVGCGGRFPVEKDAKEEVKLFLGNAGTAMRSLTAAVVAAGGNATYVLDGVPRMRERPIGDLVVGLQQLGADVDCFLGTNCPPVRINGKGGLPGGKVKLSGSISSQYLSSLLMAAPLALEDVEIEIIDKLISVPYVEMTLKLMEHFGVTAEHSDSWDRFYIKGGQKYKSPGNAYVEGDASSASYFLAGAAITGGTVTVEGCGTTSLQGDVKFAEVLEMMGAKVTWTDTSVTVTGPPRQPFGRKHLKAVDVNMNKMPDVAMTLAVVALFADGPTAIRDVASWRVKETERMVAIRTELTKLGATVEEGPDYCIITPPEKLNITAIDTYDDHRMAMAFSLAACAEVPVTIRDPGCTRKTFPNYFDVLSTFVKN",52.8%,13,15,13,12,had relatively high resistance to glyphosate,7.5%,26,3,1,23,0.0%,21,0,0,32,0.0%,11,0,0,"glyphosate resistance / survival of the rice transformed by the EPSPS, in words (5× glyphosate dosage): none of the rice seedlings containing the wheat EPSPS mutant T2 achieved the level of medium glyphosate resistance; number of plants denoted by − (no glyphosate resistance) [4]: 42; glyphosate resistance / survival of the rice transformed by the EPSPS, in words (20× glyphosate dosage): none of the rice seedlings containing the wheat EPSPS mutant T2 achieved the level of medium glyphosate resistance"
